Measured values taken from patent US20120213763A1 (COUNCIL OF SCIENTIFIC AND INDUSTRIAL RESEARCH, published 2012).

Columns and labels:
[1] = biological target: T1, PEGylated SK C-Cys (SEQ ID NO 490), Cys at C + 1 position in SK
T1 chain: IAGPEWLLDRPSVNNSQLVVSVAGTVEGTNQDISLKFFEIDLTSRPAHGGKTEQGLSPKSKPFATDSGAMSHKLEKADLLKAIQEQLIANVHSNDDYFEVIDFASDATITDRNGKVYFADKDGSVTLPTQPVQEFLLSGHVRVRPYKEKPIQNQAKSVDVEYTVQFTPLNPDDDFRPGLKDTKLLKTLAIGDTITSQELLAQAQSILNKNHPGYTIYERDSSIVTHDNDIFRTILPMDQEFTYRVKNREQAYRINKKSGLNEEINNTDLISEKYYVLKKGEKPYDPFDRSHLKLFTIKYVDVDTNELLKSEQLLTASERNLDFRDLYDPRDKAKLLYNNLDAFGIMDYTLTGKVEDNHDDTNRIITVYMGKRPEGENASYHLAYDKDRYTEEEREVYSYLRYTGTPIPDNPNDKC

[2] = biological target: T2, bi-pegylated NC 1-383 (SEQ ID NO 493), Cys at N - 1 and at C + 1 position in SK (1-383, G3)
T2 chain: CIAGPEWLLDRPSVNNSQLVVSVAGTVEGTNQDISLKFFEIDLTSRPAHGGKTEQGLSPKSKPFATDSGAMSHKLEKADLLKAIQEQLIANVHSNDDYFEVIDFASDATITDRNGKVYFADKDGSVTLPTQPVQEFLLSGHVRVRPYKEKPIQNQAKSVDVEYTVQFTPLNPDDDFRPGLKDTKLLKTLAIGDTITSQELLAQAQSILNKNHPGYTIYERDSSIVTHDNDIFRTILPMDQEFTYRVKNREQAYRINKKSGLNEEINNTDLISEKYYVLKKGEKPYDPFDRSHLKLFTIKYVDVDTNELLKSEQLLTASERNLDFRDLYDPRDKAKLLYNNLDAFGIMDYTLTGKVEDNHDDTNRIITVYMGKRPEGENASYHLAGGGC

[3] = biological target: T3, PEGylated SK L260C (SEQ ID NO 50)
T3 chain: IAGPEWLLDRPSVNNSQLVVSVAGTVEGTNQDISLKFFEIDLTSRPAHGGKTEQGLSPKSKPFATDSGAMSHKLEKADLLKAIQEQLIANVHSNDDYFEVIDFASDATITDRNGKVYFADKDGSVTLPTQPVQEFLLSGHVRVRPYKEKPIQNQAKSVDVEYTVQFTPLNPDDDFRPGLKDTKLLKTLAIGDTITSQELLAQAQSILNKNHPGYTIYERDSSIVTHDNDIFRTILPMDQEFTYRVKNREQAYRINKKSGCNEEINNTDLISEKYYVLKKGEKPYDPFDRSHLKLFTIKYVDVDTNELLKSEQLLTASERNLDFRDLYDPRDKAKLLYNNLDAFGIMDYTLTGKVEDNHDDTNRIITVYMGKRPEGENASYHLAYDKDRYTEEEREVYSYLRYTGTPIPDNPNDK

[4] = biological target: T4, PEGylated SK D95C (SEQ ID NO 30)
T4 chain: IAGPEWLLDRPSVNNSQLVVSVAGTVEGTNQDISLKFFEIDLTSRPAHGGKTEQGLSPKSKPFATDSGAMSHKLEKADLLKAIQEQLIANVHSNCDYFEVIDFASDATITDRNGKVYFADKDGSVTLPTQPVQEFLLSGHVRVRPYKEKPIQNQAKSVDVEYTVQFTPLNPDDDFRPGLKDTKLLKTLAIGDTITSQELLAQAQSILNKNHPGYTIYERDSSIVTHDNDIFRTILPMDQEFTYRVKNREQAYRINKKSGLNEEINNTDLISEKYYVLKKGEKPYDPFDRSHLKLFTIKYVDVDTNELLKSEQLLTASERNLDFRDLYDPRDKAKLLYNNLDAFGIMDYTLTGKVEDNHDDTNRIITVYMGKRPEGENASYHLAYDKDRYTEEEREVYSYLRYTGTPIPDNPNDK

[5] = biological target: T5, PEGylated SK D102C (SEQ ID NO 32)
T5 chain: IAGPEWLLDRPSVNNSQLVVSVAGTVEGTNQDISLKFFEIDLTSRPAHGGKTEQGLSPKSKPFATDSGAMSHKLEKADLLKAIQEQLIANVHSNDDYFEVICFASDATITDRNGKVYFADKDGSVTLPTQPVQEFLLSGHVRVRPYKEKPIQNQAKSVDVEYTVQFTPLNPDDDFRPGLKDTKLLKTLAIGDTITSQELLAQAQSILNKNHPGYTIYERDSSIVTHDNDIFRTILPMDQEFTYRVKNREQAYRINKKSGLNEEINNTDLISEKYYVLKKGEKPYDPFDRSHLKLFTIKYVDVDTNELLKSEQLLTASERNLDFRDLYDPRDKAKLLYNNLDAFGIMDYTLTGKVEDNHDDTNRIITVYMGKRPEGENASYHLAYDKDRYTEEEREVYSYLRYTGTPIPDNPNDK

[6] = biological target: T6, PEGylated SK S105C (SEQ ID NO 33)
T6 chain: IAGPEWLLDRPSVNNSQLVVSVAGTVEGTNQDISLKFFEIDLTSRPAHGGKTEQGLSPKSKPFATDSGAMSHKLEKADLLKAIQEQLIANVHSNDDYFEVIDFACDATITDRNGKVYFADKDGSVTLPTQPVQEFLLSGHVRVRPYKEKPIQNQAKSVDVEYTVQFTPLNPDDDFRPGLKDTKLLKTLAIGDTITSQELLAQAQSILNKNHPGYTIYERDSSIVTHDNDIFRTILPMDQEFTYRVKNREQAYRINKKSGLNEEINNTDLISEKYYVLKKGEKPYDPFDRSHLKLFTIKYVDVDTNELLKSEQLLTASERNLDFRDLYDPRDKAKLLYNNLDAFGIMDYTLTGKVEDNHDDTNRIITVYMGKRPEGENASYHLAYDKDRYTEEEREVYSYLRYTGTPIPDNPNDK

[7] = biological target: T7, PEGylated SK N255C (SEQ ID NO 46)
T7 chain: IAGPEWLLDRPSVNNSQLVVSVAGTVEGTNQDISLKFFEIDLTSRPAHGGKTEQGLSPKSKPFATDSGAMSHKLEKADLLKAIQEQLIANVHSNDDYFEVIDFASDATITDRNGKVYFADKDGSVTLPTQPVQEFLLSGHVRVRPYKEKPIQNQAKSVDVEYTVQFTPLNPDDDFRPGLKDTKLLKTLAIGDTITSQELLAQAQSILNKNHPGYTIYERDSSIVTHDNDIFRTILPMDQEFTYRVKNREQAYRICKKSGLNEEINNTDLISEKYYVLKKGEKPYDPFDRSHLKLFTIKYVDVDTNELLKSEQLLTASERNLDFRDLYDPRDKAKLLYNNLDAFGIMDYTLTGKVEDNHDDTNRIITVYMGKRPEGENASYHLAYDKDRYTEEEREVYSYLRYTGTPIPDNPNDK

B1: human plasminogen (HPG) (protein)
chain: KVYLSECKTGNGKNYRGTMSKTKNGITCQKWSSTSPHRPRFSPATHPSEGLEENYCRNPDNDPQGPWCYTTDPEKRYDYCDILECEEECMHCSGENYDGKISKTMSGLECQAWDSQSPHAHGYIPSKFPNKNLKKNYCRNPDRELRPWCFTTDPNKRWELCDIPRCTTPPPSSGPTYQCLKGTGENYRGNVAVTVSGHTCQHWSAQTPHTHNRTPENFPCKNLDENYCRNPDGKRAPWCHTTNSQVRWEYCKIPSCDSSPVSTEQLAPTAPPELTPVVQDCYHGDGQSYRGTSSTTTTGKKCQSWSSMTPHRHQKTPENYPNAGLTMNYCRNPDADKGPWCFTTDPSVRWEYCNLKKCSGTEASVVAPPPVVLLPDVETPSEEDCMFGNGKGYRGKRATTVTGTPCQDWAAQEPHRHSIFTPETNPRAGLEKNYCRNPDGDVGGPWCYTTNPRKLYDYCDVPQCAAPSFDCGKPQVEPKKCPGRVVGGCVAHPHSWPWQVSLRTRFGMHFCGGTLISPEWVLTAAHCLEKSPRPSSYKVILGAHQEVNLEPHVQEIEVSRLFLEPTRKDIALLKLSSPAVITDKVIPACLPSPNYVVADRTECFITGWGETQGTFGAGLLKEAQLPVIENKVCNRYEFLNGRVQSTELCAGHLAGGTDSCQGDSGGPLVCFEKDKYILQGVTSWGLGCARPNKPGVYVRVSRFVTWIEGVMRNN
In the case of B1, the Km [1] is reported as 0.4 µM, the Km [2] is reported as 0.48 µM and the Km [3] is reported as 0.6 µM. It also gave a Km [4] of 0.5 µM, a Km [5] of 0.5 µM and a Km [6] of 0.5 µM. It also gave a Km [7] of 0.4 µM.
